Results published in publication PMC10786891, “Massively parallel profiling of RNA-targeting CRISPR-Cas13d”.

Target: T1, EsCas13d, nuclease-dead (Eubacterium siraeum, UniProt B0MS50, R295A;H300A;R849A;H854A)
T1 sequence: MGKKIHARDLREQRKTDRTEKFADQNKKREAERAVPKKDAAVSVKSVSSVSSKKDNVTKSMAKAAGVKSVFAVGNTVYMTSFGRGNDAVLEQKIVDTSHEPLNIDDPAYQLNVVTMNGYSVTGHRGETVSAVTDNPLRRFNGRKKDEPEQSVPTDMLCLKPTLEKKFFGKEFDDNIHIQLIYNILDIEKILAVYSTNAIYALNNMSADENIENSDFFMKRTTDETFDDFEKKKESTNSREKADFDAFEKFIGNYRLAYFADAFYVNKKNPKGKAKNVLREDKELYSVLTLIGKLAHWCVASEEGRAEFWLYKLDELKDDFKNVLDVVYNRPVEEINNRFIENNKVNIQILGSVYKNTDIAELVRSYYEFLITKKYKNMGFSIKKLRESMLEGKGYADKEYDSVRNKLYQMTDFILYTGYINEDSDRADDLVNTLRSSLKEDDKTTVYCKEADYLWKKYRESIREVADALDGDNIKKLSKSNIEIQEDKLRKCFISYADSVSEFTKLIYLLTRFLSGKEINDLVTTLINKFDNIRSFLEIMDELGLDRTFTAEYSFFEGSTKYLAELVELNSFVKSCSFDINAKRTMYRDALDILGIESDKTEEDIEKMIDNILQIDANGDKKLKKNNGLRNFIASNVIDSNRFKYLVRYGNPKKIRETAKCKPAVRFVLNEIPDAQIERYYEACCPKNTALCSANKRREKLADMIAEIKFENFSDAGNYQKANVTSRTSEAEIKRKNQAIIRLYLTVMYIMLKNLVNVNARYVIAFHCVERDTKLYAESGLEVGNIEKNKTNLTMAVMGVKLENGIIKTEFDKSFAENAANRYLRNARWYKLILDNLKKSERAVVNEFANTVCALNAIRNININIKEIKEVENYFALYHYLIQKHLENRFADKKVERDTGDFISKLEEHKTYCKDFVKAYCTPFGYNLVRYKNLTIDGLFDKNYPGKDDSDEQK
Experiment: crRNA (strand 1, pre-loaded); Mg2+; 40 mM Tris-HCl pH 7.5, 150 mM NaCl, 6 mM MgCl2, 1 mM DTT, 0.1% Tween-20, 0.2 mg/ml BSA; 25 C; 10 min per concentration, then washed
Conditions: tags: His6-TwinStrep-SUMO cleaved; N-terminal SNAP kept (SNAP-Surface 488); label: 3' end held by stalled T7 RNA polymerase

B1: target 1 insA 3' of 22,insG 3' of 8 (mixed)
RNA 1: CACCCGUGCAAAAAUGCAGGGGUCUAAAACUGAGCGGAUAACCUCUCUAUGG
RNA 2: GGGAAUGGAUCCACAUCUACGAAUUCGUACACAUAGAGAGGUUAUGCCGCUCACCGAGAUCGGAAGAGCACACGU
- Kd: 17.4 ± 1 nM

B2: target 1 insC 3' of 14 (mixed)
RNA 1: CACCCGUGCAAAAAUGCAGGGGUCUAAAACUGAGCGGAUAACCUCUCUAUGG
RNA 2: GGGAAUGGAUCCACAUCUACGAAUUCGUACCAUAGAGACGGUUAUCCGCUCACCGAGAUCGGAAGAGCACACGU
- Kd: 43 ± 6 nM

B3: target 1 G15C,C22U (mixed)
RNA 1: CACCCGUGCAAAAAUGCAGGGGUCUAAAACUGAGCGGAUAACCUCUCUAUGG
RNA 2: GGGAAUGGAUCCACAUCUACGAAUUCGUAUCAUAGACAGGUUAUCCGCUCACCGAGAUCGGAAGAGCACACGU
- Kd: ~70 nM

B4: target 3 U2G,A13G (mixed)
RNA 1: CACCCGUGCAAAAUUGCAGGGGUCUAAAACGACCUGAAUAUUUCAGAUCAAA
RNA 2: GGGAAUGGAUCCACAUCUACGAAUUCGUUUUUGAUCUGGAAUAUUCAGGGCUGCAGAUCGGAAGAGCACACGU
- Kd: 73.5 ± 29 nM

B5: target 3 U21C (mixed)
RNA 1: CACCCGUGCAAAAUUGCAGGGGUCUAAAACGACCUGAAUAUUUCAGAUCAAA
RNA 2: GGGAAUGGAUCCACAUCUACGAAUUCGUUUCUGAUCUGAAAUAUUCAGGUCUGCAGAUCGGAAGAGCACACGU
- Kd: 71 ± 18 nM

B6: target 3 insU 3' of 11,insC 3' of 4 (mixed)
RNA 1: CACCCGUGCAAAAUUGCAGGGGUCUAAAACGACCUGAAUAUUUCAGAUCAAA
RNA 2: GGGAAUGGAUCCACAUCUACGAAUUCGUUUUUGAUCUGAAAUUAUUCAGCGUCUGCAGAUCGGAAGAGCACACGU
- Kd: 90 ± 26 nM

B7: target 3 insA 3' of 22,insC 3' of 2 (mixed)
RNA 1: CACCCGUGCAAAAUUGCAGGGGUCUAAAACGACCUGAAUAUUUCAGAUCAAA
RNA 2: GGGAAUGGAUCCACAUCUACGAAUUCGUUUAUUGAUCUGAAAUAUUCAGGUCCUGCAGAUCGGAAGAGCACACGU
- Kd: 84.5 ± 23.5 nM

B8: target 3 insC 3' of 5,insG 3' of 1 (mixed)
RNA 1: CACCCGUGCAAAAUUGCAGGGGUCUAAAACGACCUGAAUAUUUCAGAUCAAA
RNA 2: GGGAAUGGAUCCACAUCUACGAAUUCGUUUUUGAUCUGAAAUAUUCACGGUCGUGCAGAUCGGAAGAGCACACGU
- Kd: 38.5 ± 13 nM

B9: target 3 insG 3' of 8,insG 3' of 2 (mixed)
RNA 1: CACCCGUGCAAAAUUGCAGGGGUCUAAAACGACCUGAAUAUUUCAGAUCAAA
RNA 2: GGGAAUGGAUCCACAUCUACGAAUUCGUUUUUGAUCUGAAAUAUGUCAGGUGCUGCAGAUCGGAAGAGCACACGU
- Kd: 57 ± 27 nM

B10: target 3 del8,del22 (mixed)
RNA 1: CACCCGUGCAAAAUUGCAGGGGUCUAAAACGACCUGAAUAUUUCAGAUCAAA
RNA 2: GGGAAUGGAUCCACAUCUACGAAUUCGUUUUGAUCUGAAAUAUCAGGUCUGCAGAUCGGAAGAGCACACGU
- Kd: 74.5 ± 13 nM

B11: target 3 C6G,A11G (mixed)
RNA 1: CACCCGUGCAAAAUUGCAGGGGUCUAAAACGACCUGAAUAUUUCAGAUCAAA
RNA 2: GGGAAUGGAUCCACAUCUACGAAUUCGUUUUUGAUCUGAAGUAUUGAGGUCUGCAGAUCGGAAGAGCACACGU
- Kd: 60 ± 18 nM

B12: target 3 insG 3' of 10,insU 3' of 3 (mixed)
RNA 1: CACCCGUGCAAAAUUGCAGGGGUCUAAAACGACCUGAAUAUUUCAGAUCAAA
RNA 2: GGGAAUGGAUCCACAUCUACGAAUUCGUUUUUGAUCUGAAAUGAUUCAGGUUCUGCAGAUCGGAAGAGCACACGU
- Kd: 111 ± 28.5 nM

B13: target 3 insU 3' of 5,insA 3' of 2 (mixed)
RNA 1: CACCCGUGCAAAAUUGCAGGGGUCUAAAACGACCUGAAUAUUUCAGAUCAAA
RNA 2: GGGAAUGGAUCCACAUCUACGAAUUCGUUUUUGAUCUGAAAUAUUCAUGGUACUGCAGAUCGGAAGAGCACACGU
- Kd: 21.2 ± 3.65 nM

B14: target 3 C1A,U7G (mixed)
RNA 1: CACCCGUGCAAAAUUGCAGGGGUCUAAAACGACCUGAAUAUUUCAGAUCAAA
RNA 2: GGGAAUGGAUCCACAUCUACGAAUUCGUUUUUGAUCUGAAAUAUGCAGGUAUGCAGAUCGGAAGAGCACACGU
- Kd: 24.5 ± 6 nM

B15: target 3 insG 3' of 6,insG 3' of 5 (mixed)
RNA 1: CACCCGUGCAAAAUUGCAGGGGUCUAAAACGACCUGAAUAUUUCAGAUCAAA
RNA 2: GGGAAUGGAUCCACAUCUACGAAUUCGUUUUUGAUCUGAAAUAUUCGAGGGUCUGCAGAUCGGAAGAGCACACGU
- Kd: 8.85 ± 0.8 nM

B16: target 3 U7A,U22A (mixed)
RNA 1: CACCCGUGCAAAAUUGCAGGGGUCUAAAACGACCUGAAUAUUUCAGAUCAAA
RNA 2: GGGAAUGGAUCCACAUCUACGAAUUCGUUAUUGAUCUGAAAUAUACAGGUCUGCAGAUCGGAAGAGCACACGU
- Kd: 42.5 ± 7.25 nM

B17: target 3 insU 3' of 3,insA 3' of 3 (mixed)
RNA 1: CACCCGUGCAAAAUUGCAGGGGUCUAAAACGACCUGAAUAUUUCAGAUCAAA
RNA 2: GGGAAUGGAUCCACAUCUACGAAUUCGUUUUUGAUCUGAAAUAUUCAGGUAUCUGCAGAUCGGAAGAGCACACGU
- Kd: 28.7 ± 3 nM

B18: target 3 insA 3' of 15,insU 3' of 1 (mixed)
RNA 1: CACCCGUGCAAAAUUGCAGGGGUCUAAAACGACCUGAAUAUUUCAGAUCAAA
RNA 2: GGGAAUGGAUCCACAUCUACGAAUUCGUUUUUGAUCUAGAAAUAUUCAGGUCUUGCAGAUCGGAAGAGCACACGU
- Kd: 51 ± 5 nM

B19: target 3 insC 3' of 11 (mixed)
RNA 1: CACCCGUGCAAAAUUGCAGGGGUCUAAAACGACCUGAAUAUUUCAGAUCAAA
RNA 2: GGGAAUGGAUCCACAUCUACGAAUUCGUUUUUGAUCUGAAACUAUUCAGGUCUGCAGAUCGGAAGAGCACACGU
- Kd: 83.5 ± 29 nM

B20: target 3 insC 3' of 8,insC 3' of 5 (mixed)
RNA 1: CACCCGUGCAAAAUUGCAGGGGUCUAAAACGACCUGAAUAUUUCAGAUCAAA
RNA 2: GGGAAUGGAUCCACAUCUACGAAUUCGUUUUUGAUCUGAAAUAUCUCACGGUCUGCAGAUCGGAAGAGCACACGU
- Kd: 74.5 ± 9.5 nM

B21: target 3 insU 3' of 6,insU 3' of 6 (mixed)
RNA 1: CACCCGUGCAAAAUUGCAGGGGUCUAAAACGACCUGAAUAUUUCAGAUCAAA
RNA 2: GGGAAUGGAUCCACAUCUACGAAUUCGUUUUUGAUCUGAAAUAUUCUUAGGUCUGCAGAUCGGAAGAGCACACGU
- Kd: 17.3 ± 1.2 nM

B22: target 3 C1G (mixed)
RNA 1: CACCCGUGCAAAAUUGCAGGGGUCUAAAACGACCUGAAUAUUUCAGAUCAAA
RNA 2: GGGAAUGGAUCCACAUCUACGAAUUCGUUUUUGAUCUGAAAUAUUCAGGUGUGCAGAUCGGAAGAGCACACGU
- Kd: 28.8 ± 4.15 nM

B23: target 3 U2C (mixed)
RNA 1: CACCCGUGCAAAAUUGCAGGGGUCUAAAACGACCUGAAUAUUUCAGAUCAAA
RNA 2: GGGAAUGGAUCCACAUCUACGAAUUCGUUUUUGAUCUGAAAUAUUCAGGCCUGCAGAUCGGAAGAGCACACGU
- Kd: 88.5 ± 18 nM

B24: target 3 insC 3' of 8,insA 3' of 8 (mixed)
RNA 1: CACCCGUGCAAAAUUGCAGGGGUCUAAAACGACCUGAAUAUUUCAGAUCAAA
RNA 2: GGGAAUGGAUCCACAUCUACGAAUUCGUUUUUGAUCUGAAAUAUCAUCAGGUCUGCAGAUCGGAAGAGCACACGU
- Kd: 76.5 ± 19 nM

B25: target 3 insU 3' of 11,insC 3' of 5 (mixed)
RNA 1: CACCCGUGCAAAAUUGCAGGGGUCUAAAACGACCUGAAUAUUUCAGAUCAAA
RNA 2: GGGAAUGGAUCCACAUCUACGAAUUCGUUUUUGAUCUGAAAUUAUUCACGGUCUGCAGAUCGGAAGAGCACACGU
- Kd: 81.5 ± 12.5 nM

B26: target 3 G4U,C6U (mixed)
RNA 1: CACCCGUGCAAAAUUGCAGGGGUCUAAAACGACCUGAAUAUUUCAGAUCAAA
RNA 2: GGGAAUGGAUCCACAUCUACGAAUUCGUUUUUGAUCUGAAAUAUUUAUGUCUGCAGAUCGGAAGAGCACACGU
- Kd: 7.45 ± 0.85 nM

B27: target 3 U2C,C6G (mixed)
RNA 1: CACCCGUGCAAAAUUGCAGGGGUCUAAAACGACCUGAAUAUUUCAGAUCAAA
RNA 2: GGGAAUGGAUCCACAUCUACGAAUUCGUUUUUGAUCUGAAAUAUUGAGGCCUGCAGAUCGGAAGAGCACACGU
- Kd: 31.5 ± 4.5 nM

B28: target 3 G3C,U8C (mixed)
RNA 1: CACCCGUGCAAAAUUGCAGGGGUCUAAAACGACCUGAAUAUUUCAGAUCAAA
RNA 2: GGGAAUGGAUCCACAUCUACGAAUUCGUUUUUGAUCUGAAAUACUCAGCUCUGCAGAUCGGAAGAGCACACGU
- Kd: 71 ± 6 nM
